According to the supplement of paper PMC7877785:
± gives the uncertainty stated by the source.

Assay: self-splicing fitness, log relative to wild type (ln ratio); higher = more splicing; Tetrahymena group I intron in knt gene, E. coli kanamycin selection, DiMSum; sequences stand for … in CUCUCU…GGAGGGAAAAGUUAUCAGGCAUGCACCUGGUAGCUAGUCUUUAAACCAAUAGAUUGCAUCGGUUUAAAAGGCAAGACCGUCAAAUUGCGGGAAAGGGGUCAACAGCCGUUCAGUACCAAGUCUCAGGGGAAACUUUGAGAUGGCCUUGCAAAGGGUAUGGUAAUAAGCUGACGGACAUGGUCCUAACCACGCAGCCAAGUCCUAAGUCAACAGAUCUUCUGUUGAUAUGGAUGCAGUUCACAGACUAAAUGUCGGUCGGGGAAGAUGUAUUCUUCUCAUAAGAUAUAGUCGGACCUCUCCUUAAUGGGAGCUAGCGGAUGAAGUGAUGCAACACUGGAGCCGCUGGGAACUAAUUUGUAUGCGAAAGUAUAUUGAUUAGUUUUGGAGUACUCGUGGUCG
Method in brief: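 Library with all eight P1ex-region intron nucleotides randomised, intron inside the knt kanamycin-resistance gene on pET-22b(+), in E. coli BL21(DE3). Cells grew overnight at 37°C or 30°C on LB agar with or without 25 μg/mL kanamycin (plus 100 μg/mL carbenicillin, 50 μM IPTG, 0.2% rhamnose), in six replicate transformations. Pooled colonies were amplicon-sequenced on Illumina HiSeq 2500. DiMSum fitness is the error-weighted combination of wild-type-normalised replicate fold changes, kanamycin versus none.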

Sequence | self-splicing fitness (ln) (30 °C) | self-splicing fitness (ln) (37 °C)
GAAGAGCAAUAUUACGCCUC | -3.27 ± 0.32 | -2.96 ± 0.32
GAAGAGCAAUAUUACGCGGA | -2.64 ± 0.17 | -2.37 ± 0.21
GAAGAGCAAUAUUACGCGUA | -3.68 ± 0.37 | -2.05 ± 0.22
GAAGAGCAAUAUUACGCUGU | -3.82 ± 0.3 | -2.6 ± 0.29
GAAGAGCAAUAUUACGCUUC | -2.47 ± 0.34 | -1.37 ± 0.18
GAAGAGCAAUAUUACGCUUG | -2.25 ± 0.13 | -1.3 ± 0.14
GAAGAGCAAUAUUACGGACG | -2.59 ± 0.27 | –
GAAGAGCAAUAUUACGGCCG | -2.63 ± 0.42 | -0.854 ± 0.29
GAAGAGCAAUAUUACGGGAU | -3.63 ± 0.22 | -3.16 ± 0.3
GAAGAGCAAUAUUACGGGGU | -3.09 ± 0.34 | -1.83 ± 0.28
GAAGAGCAAUAUUACGUAAU | -3.03 ± 0.2 | -1.22 ± 0.23
GAAGAGCAAUAUUACGUAUA | -2 ± 0.28 | -3.5 ± 0.34
GAAGAGCAAUAUUACGUCGU | -2.96 ± 0.21 | -2.24 ± 0.21
GAAGAGCAAUAUUACGUCUU | -4.83 ± 0.19 | -2.4 ± 0.081
GAAGAGCAAUAUUACGUGGA | -2.05 ± 0.18 | -2.54 ± 0.26
GAAGAGCAAUAUUACGUUAG | -2.19 ± 0.3 | -2.59 ± 0.31
GAAUAGCAAUAUUACGAAGC | -3.17 ± 0.24 | -2.54 ± 0.22
GAAUAGCAAUAUUACGCAGG | -2.6 ± 0.2 | -2.28 ± 0.21
GAAUAGCAAUAUUACGCAUU | -3.04 ± 0.22 | -1.43 ± 0.2
GAAUAGCAAUAUUACGCGAG | -1.19 ± 0.087 | -0.803 ± 0.096
GAAUAGCAAUAUUACGCUCA | -0.0838 ± 0.16 | 0.784 ± 0.18
GAAUAGCAAUAUUACGGACU | -0.83 ± 0.07 | -0.397 ± 0.087
GAAUAGCAAUAUUACGGGAA | -2.97 ± 0.19 | -0.92 ± 0.1
GAAUAGCAAUAUUACGGGCC | -1.6 ± 0.26 | -1.13 ± 0.37

Sequence | self-splicing fitness (ln) (30 °C) | self-splicing fitness (ln) (37 °C)
GAAUAGCAAUAUUACGGGGA | -2.99 ± 0.19 | -2.39 ± 0.19
GAAUAGCAAUAUUACGGGGC | -3.15 ± 0.43 | –
GAAUAGCAAUAUUACGGGGU | -3.77 ± 0.21 | -3.71 ± 0.21
GAAUAGCAAUAUUACGGUUU | -1.03 ± 0.078 | -1.11 ± 0.1
GAAUAGCAAUAUUACGUACU | -0.732 ± 0.11 | -0.151 ± 0.12
GAAUAGCAAUAUUACGUAUA | -2.32 ± 0.15 | -1.54 ± 0.15
GAAUAGCAAUAUUACGUUAU | -2.79 ± 0.12 | -1.65 ± 0.14
GAAUAGCAAUAUUACGUUGU | -3.27 ± 0.14 | -2.38 ± 0.16
GAAUAGCAAUAUUACGUUUC | -3.37 ± 0.19 | -2.4 ± 0.29
GACAAGCAAUAUUACGAAUA | -2.03 ± 0.12 | -1.17 ± 0.099
GACAAGCAAUAUUACGACCC | 0.926 ± 0.23 | -0.477 ± 0.39
GACAAGCAAUAUUACGAGGA | -3.16 ± 0.21 | -2.42 ± 0.14
GACAAGCAAUAUUACGAGUU | -3.7 ± 0.15 | -2.3 ± 0.16
GACAAGCAAUAUUACGAUUA | -0.415 ± 0.096 | -0.117 ± 0.1
GACAAGCAAUAUUACGCACG | -2.2 ± 0.13 | -1.07 ± 0.17
GACAAGCAAUAUUACGCCAU | -3.44 ± 0.4 | -2.96 ± 0.26
GACAAGCAAUAUUACGCGCG | -0.648 ± 0.091 | -0.467 ± 0.11
GACAAGCAAUAUUACGCGGA | -2.24 ± 0.16 | -1.25 ± 0.13
GACAAGCAAUAUUACGCUAG | -2.28 ± 0.081 | -1.36 ± 0.089
GACAAGCAAUAUUACGCUCG | -1.47 ± 0.17 | -0.891 ± 0.21
GACAAGCAAUAUUACGGAUC | -1.19 ± 0.13 | -0.182 ± 0.15
GACAAGCAAUAUUACGGGGC | -3.36 ± 0.18 | -2.81 ± 0.23
GACAAGCAAUAUUACGGUAA | -1.69 ± 0.11 | -0.907 ± 0.11
